Literature values, collected in patent publication EP3906935A1, “PEPTIDES FOR PREVENTING OR TREATING VIRAL INFECTIONS” (SORBONNE UNIVERSITE, priority 2020, dated 2021).

Settings: N- and C-protected peptide; experimental data reported by Zhou et al.

Ac-EAEKAAKEAEKAAKEAEK-NH2 [SEQ ID NO: 146, peptide of eighteen residues with N- and C-protected extremities previously built by Zhou et al]
content of amphipathic helical structure in solution: 65%
